The labels stand for the following.
B1: KLHL13 (parent)
chain: GVSKVGLRKIIDFIYTAKLSLNMD
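Also: lentivirally expressed fusions sorted by FACS into six bins by GFP to DsRed ratio, PSI derived from sequencing read proportions per bin multiplied by bin number.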

The variants in this series derive from B1. Briefly: protein stability index of a GFP-peptide fusion (GPS, HEK-293T) (PSI 1-6); higher = more stable. Particulars: c terminus: a fixed tail appended.
With GVSKTGLRKIIDFIYTAKLSLNMD [V5T], the protein stability index is 4.05.
As for GVSKSGLRKIIDFIYTAKLSLNMD [V5S], the figure is 3.47; as for GVSKCGLRKIIDFIYTAKLSLNMD [V5C], 2.67; as for GVSKGGLRKIIDFIYTAKLSLNMD [V5G], 3.21.
On to GVSKNGLRKIIDFIYTAKLSLNMD [V5N], for which the protein stability index amounted to 3.8.
As to GVSKQGLRKIIDFIYTAKLSLNMD [V5Q], the protein stability index was found to be 3.5.
Consider GVSKPGLRKIIDFIYTAKLSLNMD [V5P], for which the protein stability index is 2.58.
As for GVSKMGLRKIIDFIYTAKLSLNMD [V5M], the figure is 2.27; as for GVSKVGLHKIIDFIYTAKLSLNMD [R8H], 2.07.
Turning to GVSKVGLWKIIDFIYTAKLSLNMD [R8W], the protein stability index stood at 3.31.
The result for GVSKVGLIKIIDFIYTAKLSLNMD [R8I] reads 2.55; that for GVSKVGLDKIIDFIYTAKLSLNMD [R8D], 3.02; that for GVSKVGLKKIIDFIYTAKLSLNMD [R8K], 4.72.
As for GVSKVGLCKIIDFIYTAKLSLNMD [R8C], the figure is 2.46; as for GVSKVGLMKIIDFIYTAKLSLNMD [R8M], 1.69.
The result for GVSKVGLGKIIDFIYTAKLSLNMD [R8G] reads 2.07.
Take GVSKVGLPKIIDFIYTAKLSLNMD [R8P]: the protein stability index was 1.92.
The result for GVSKVGLEKIIDFIYTAKLSLNMD [R8E] reads 1.49; that for GVSKVGLAKIIDFIYTAKLSLNMD [R8A], 5.37.
Regarding GVSKVGLLKIIDFIYTAKLSLNMD [R8L], the protein stability index is 4.65.
Consider GVSSVGLRKIIDFIYTAKLSLNMD [K4S], for which the protein stability index was 2.88.
As for GVSYVGLRKIIDFIYTAKLSLNMD [K4Y], the figure is 1.85; as for GVSEVGLRKIIDFIYTAKLSLNMD [K4E], 2.77.
For GVSWVGLRKIIDFIYTAKLSLNMD [K4W], the protein stability index turned out to be 2.34.
Take GVSAVGLRKIIDFIYTAKLSLNMD [K4A]: the protein stability index came to 3.12.
For the variant GVSDVGLRKIIDFIYTAKLSLNMD [K4D], the protein stability index came out at 4.34.
Take GVSTVGLRKIIDFIYTAKLSLNMD [K4T]: the protein stability index came out at 4.12.
The result for GVSCVGLRKIIDFIYTAKLSLNMD [K4C] reads 2.64; that for GVSNVGLRKIIDFIYTAKLSLNMD [K4N], 2.24.
As to GVSIVGLRKIIDFIYTAKLSLNMD [K4I], the protein stability index amounted to 1.94.
As for GVSFVGLRKIIDFIYTAKLSLNMD [K4F], the protein stability index is 3.29.
For the variant GVSRVGLRKIIDFIYTAKLSLNMD [K4R], the protein stability index was determined as 2.95.
The result for GVSHVGLRKIIDFIYTAKLSLNMD [K4H] reads 2.18; that for GVSLVGLRKIIDFIYTAKLSLNMD [K4L], 1.93.
For the variant GVSMVGLRKIIDFIYTAKLSLNMD [K4M], the protein stability index stood at 2.42.
As for GVSKVGLRKIIDFSYTAKLSLNMD [I14S], the protein stability index was 2.02.
As for GVSKVGLRKIIDFHYTAKLSLNMD [I14H], the protein stability index amounted to 1.34.
As to GVSKVGLRKIIDFKYTAKLSLNMD [I14K], the protein stability index came out at 1.94.
For GVSKVGLRKIIDFPYTAKLSLNMD [I14P], the protein stability index was determined as 2.12.
In the case of GVSKVGLRKIIDFAYTAKLSLNMD [I14A], the protein stability index amounted to 2.38.
Take GVSKVGLRKIIDFWYTAKLSLNMD [I14W]: the protein stability index was 3.72.
Take GVSKVGLRKIIDFVYTAKLSLNMD [I14V]: the protein stability index was 2.43.
As for GVSKVGLRKIIDFGYTAKLSLNMD [I14G], the figure is 3.7.
As for GVSKVGLRKIIDFDYTAKLSLNMD [I14D], the figure is 1.86; as for GVSKVGLRKIIDFLYTAKLSLNMD [I14L], 2.9.
The result for GVSKVGLRKIIDFCYTAKLSLNMD [I14C] reads 2.44.
GVSKVGLRKIIDFYYTAKLSLNMD [I14Y]: the protein stability index stood at 2.27.
As for GVSKVGLRKIIDFNYTAKLSLNMD [I14N], the figure is 2.15; as for GVSKVGLRKIIDFEYTAKLSLNMD [I14E], 2.31; as for GVSKVGLRKIIDFQYTAKLSLNMD [I14Q], 2.24.
Take GVSKVGLRKIIDFMYTAKLSLNMD [I14M]: the protein stability index was found to be 3.04.
As for GVSKVGLRKIQDFIYTAKLSLNMD [I11Q], the figure is 1.61; as for GVSKVGLRKIPDFIYTAKLSLNMD [I11P], 1.97; as for GVSKVGLRKIEDFIYTAKLSLNMD [I11E], 2.1.
As for GVSKVGLRKIADFIYTAKLSLNMD [I11A], the figure is 1.87; as for GVSKVGLRKINDFIYTAKLSLNMD [I11N], 2.24.
As for GVSKVGLRKIDDFIYTAKLSLNMD [I11D], the figure is 2.14; as for GVSKVGLRKIGDFIYTAKLSLNMD [I11G], 2.63.
Consider GVSKVGLRKILDFIYTAKLSLNMD [I11L], for which the protein stability index is 3.57.
Take GVSKVGLRKIMDFIYTAKLSLNMD [I11M]: the protein stability index turned out to be 3.33.
GVSKVGLRKIYDFIYTAKLSLNMD [I11Y]: the protein stability index worked out at 4.12.
The result for GVSKVGLRKIKDFIYTAKLSLNMD [I11K] reads 4.1; that for GVSKVGLRKISDFIYTAKLSLNMD [I11S], 1.89; that for GVSKVGLRKIHDFIYTAKLSLNMD [I11H], 4.7.
As for GVSKVGLRKIIDFIFTAKLSLNMD [Y15F], the figure is 3.84.
Regarding GVSKVGLRKIIDFIGTAKLSLNMD [Y15G], the protein stability index amounted to 2.51.
GVSKVGLRKIIDFIATAKLSLNMD [Y15A]: the protein stability index amounted to 3.72.
Regarding GVSKVGLRKIIDFILTAKLSLNMD [Y15L], the protein stability index came to 2.07.
For the variant GVSKVGLRKIIDFIDTAKLSLNMD [Y15D], the protein stability index worked out at 1.8.
The result for GVSKVGLRKIIDDIYTAKLSLNMD [F13D] reads 1.7.
The result for GVSKVGLRKIIDRIYTAKLSLNMD [F13R] reads 1.54; that for GVSKVGLRKIIDEIYTAKLSLNMD [F13E], 1.43.
The result for GVSKVGLRKIIDGIYTAKLSLNMD [F13G] reads 2.41; that for GVSKVGLRKIIDCIYTAKLSLNMD [F13C], 2.83.
With GVSKVGLRKIIDHIYTAKLSLNMD [F13H], the protein stability index came out at 2.62.
For the variant GVSKVGLRKIIDQIYTAKLSLNMD [F13Q], the protein stability index came to 1.04.
On to GVSKVGLRKIIDKIYTAKLSLNMD [F13K], for which the protein stability index stood at 1.66.
The result for GVSKVGLRKIIDVIYTAKLSLNMD [F13V] reads 3.34; that for GVSKVGLRKIIDNIYTAKLSLNMD [F13N], 1.48.
GVSKVGLRKIIDSIYTAKLSLNMD [F13S]: the protein stability index is 1.44.
The result for GVSKVGLRKIIDPIYTAKLSLNMD [F13P] reads 2.22.
Take GVSKVGLRKIIDTIYTAKLSLNMD [F13T]: the protein stability index is 1.93.
As for GVSKVGLRKIIDMIYTAKLSLNMD [F13M], the figure is 2.74; as for GVSKVGLRKIIMFIYTAKLSLNMD [D12M], 1.62; as for GVSKVGLRKIIVFIYTAKLSLNMD [D12V], 1.94.
With GVSKVGLRKIIEFIYTAKLSLNMD [D12E], the protein stability index was 2.27.
As for GVSKVGLRKIIGFIYTAKLSLNMD [D12G], the protein stability index is 3.19.
In the case of GVSKVGLRKIILFIYTAKLSLNMD [D12L], the protein stability index was determined as 2.27.
As to GVSKVGLRKIISFIYTAKLSLNMD [D12S], the protein stability index was found to be 3.08.
Turning to GVSKVGLRKIIQFIYTAKLSLNMD [D12Q], the protein stability index was 2.36.
GVSKVGLRKIITFIYTAKLSLNMD [D12T]: the protein stability index is 2.9.
In the case of GVSKVGLRKIIIFIYTAKLSLNMD [D12I], the protein stability index worked out at 2.57.
Consider GVSKVGLRKIIHFIYTAKLSLNMD [D12H], for which the protein stability index came to 1.92.
As for GVSKVGLRKIINFIYTAKLSLNMD [D12N], the figure is 1.55.

The values are drawn from the supplement of paper PMC10567573.
